Reference: patent US20200102373A1
pKd: −log10 of the molar value.

Target: biotin-labeled HA peptide
Assay: SPR (OpenSPR), biotin-labeled HA peptide on a Streptavidin chip, purified FB-GFP in solution, one-to-one model, two independent experiments

## purified recombinant HA frankenbody fused with mEGFP and a hexahistidine tag (purified FB-GFP, from E. coli) (scFv)
  pKd: 7.83
